According to doi:10.1101/589580:

Each substance was assayed against full-length ZO1 with C-terminal mEGFP (UniProt Q07157) (assay: client partitioning into phase-separated droplets).
Sequence of full-length ZO1 with C-terminal mEGFP (Q07157 whole entry, the tested form may be a part): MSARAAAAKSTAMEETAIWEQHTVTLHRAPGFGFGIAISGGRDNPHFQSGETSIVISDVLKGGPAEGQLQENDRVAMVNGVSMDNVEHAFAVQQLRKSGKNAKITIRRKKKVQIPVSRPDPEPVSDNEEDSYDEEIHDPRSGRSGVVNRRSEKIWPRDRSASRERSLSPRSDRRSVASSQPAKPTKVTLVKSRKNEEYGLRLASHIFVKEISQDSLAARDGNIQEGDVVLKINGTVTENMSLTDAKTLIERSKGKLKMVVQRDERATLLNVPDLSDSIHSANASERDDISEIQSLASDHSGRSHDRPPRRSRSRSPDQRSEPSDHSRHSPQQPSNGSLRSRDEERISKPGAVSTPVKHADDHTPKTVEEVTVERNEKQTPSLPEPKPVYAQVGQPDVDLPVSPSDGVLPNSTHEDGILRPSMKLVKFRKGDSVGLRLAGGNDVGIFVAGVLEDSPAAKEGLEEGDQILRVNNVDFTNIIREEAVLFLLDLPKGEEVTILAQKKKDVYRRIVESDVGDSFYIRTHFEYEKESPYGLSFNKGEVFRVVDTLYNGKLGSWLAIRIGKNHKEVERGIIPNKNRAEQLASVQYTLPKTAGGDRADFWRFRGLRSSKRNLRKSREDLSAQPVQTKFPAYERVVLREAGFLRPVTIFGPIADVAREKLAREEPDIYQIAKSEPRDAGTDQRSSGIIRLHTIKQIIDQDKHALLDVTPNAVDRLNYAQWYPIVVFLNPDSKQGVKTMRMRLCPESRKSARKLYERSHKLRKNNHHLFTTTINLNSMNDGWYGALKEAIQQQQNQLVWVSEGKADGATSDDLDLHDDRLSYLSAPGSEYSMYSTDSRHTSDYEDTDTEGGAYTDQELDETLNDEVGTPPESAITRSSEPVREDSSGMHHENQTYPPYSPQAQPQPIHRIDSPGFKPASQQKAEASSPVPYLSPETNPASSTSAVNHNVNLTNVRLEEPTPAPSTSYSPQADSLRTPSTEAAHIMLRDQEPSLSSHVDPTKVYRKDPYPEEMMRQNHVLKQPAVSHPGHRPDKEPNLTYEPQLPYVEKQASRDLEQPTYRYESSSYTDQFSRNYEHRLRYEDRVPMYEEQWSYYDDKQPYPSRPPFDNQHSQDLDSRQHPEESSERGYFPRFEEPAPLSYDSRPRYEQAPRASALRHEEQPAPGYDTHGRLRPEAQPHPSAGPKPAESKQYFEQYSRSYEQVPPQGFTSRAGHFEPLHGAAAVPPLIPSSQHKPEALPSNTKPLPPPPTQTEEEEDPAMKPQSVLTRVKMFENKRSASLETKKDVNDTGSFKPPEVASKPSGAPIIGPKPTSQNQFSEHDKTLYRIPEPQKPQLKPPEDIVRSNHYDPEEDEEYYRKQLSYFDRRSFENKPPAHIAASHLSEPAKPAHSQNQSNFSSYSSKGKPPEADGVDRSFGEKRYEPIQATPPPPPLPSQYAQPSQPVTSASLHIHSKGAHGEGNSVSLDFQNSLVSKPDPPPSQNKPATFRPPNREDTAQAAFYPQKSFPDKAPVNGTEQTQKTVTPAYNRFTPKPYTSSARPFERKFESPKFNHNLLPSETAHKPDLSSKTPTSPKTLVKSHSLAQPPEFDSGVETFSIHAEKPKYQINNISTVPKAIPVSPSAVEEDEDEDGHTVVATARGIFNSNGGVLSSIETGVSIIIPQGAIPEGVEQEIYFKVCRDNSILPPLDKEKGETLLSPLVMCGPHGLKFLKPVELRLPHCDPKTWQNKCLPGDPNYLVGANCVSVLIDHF
“C-terminal domain of occludin (from UniProt Q16625 1-522) (domain or fragment)” showed a partitioning (client fluorescence inside/outside ZO1 droplets) of 21 fold.
“C-terminal domain of nectin-1 (from UniProt Q15223 31-517) (domain or fragment)” was tested, and the partitioning (client fluorescence inside/outside ZO1 droplets) was 9 fold.
“monomeric actin (from UniProt P60709 1-375) (natural protein)” gave a partitioning (client fluorescence inside/outside ZO1 droplets) of 22 fold.
